Results on 6 molecules are retold here after US20170101466A1 (published 2017).

Residue numbers refer to the chain shown, from its start. Names and notes keep the numbering of the source.

To fix the notation:
T1: human APRIL (human, UniProt O75888 105-250, limits assumed)
T1 construct: Bought recombinant protein; also called hAPRIL
T1 sequence (looked up): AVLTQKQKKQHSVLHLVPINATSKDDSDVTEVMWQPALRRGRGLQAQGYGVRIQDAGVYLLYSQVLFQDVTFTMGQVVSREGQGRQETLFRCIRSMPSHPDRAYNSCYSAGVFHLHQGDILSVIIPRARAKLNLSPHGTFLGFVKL

T2: human TACI (R&D Systems receptor chimera) (human, UniProt O14836 2-166)
T2 construct: also called hTACI; TACI rec Human
T2 sequence (looked up): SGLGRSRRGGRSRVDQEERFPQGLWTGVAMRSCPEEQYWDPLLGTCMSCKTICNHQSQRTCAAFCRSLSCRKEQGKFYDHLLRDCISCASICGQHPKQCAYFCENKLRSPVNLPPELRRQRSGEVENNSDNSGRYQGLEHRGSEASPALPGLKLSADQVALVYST

B1: belimumab (antibody, V domains shown)
VH: QVQLQQSGAEVKKPGSSVRVSCKASGGTFNNNAINWVRQAPGQGLEWMGGIIPMFGTAKYSQNFQGRVAITADESTGTASMELSSLRSEDTAVYYCARSRDLLLFPHHALSPWGRGTMVTVSS
VL: SSELTQDPAVSVALGQTVRVTCQGDSLRSYYASWYQQKPGQAPVLVIYGKNNRPSGIPDRFSGSSSGNTASLTITGAQAEDEADYYCSSRDSSGNHWVFGGGTELTVLG
B2: mouse TACI (R&D Systems receptor chimera) (receptor, UniProt Q9ET35 2-129, looked up, not shown: a dimerising Fc or GST)
chain: AMAFCPKDQYWDSSRKSCVSCALTCSQRSQRTCTDFCKFINCRKEQGRYYDHLLGACVSCDSTCTQHPQQCAHFCEKRPRSQANLQPELGRPQAGEVEVRSDNSGRHQGSEHGPGLRLSSDQLTLYCT
notes: also called mTACI; TACI rec Mouse
B3: mouse APRIL (ligand, UniProt Q9D777 96-241, looked up)
chain: AVLTQKHKKKHSVLHLVPVNITSKADSDVTEVMWQPVLRRGRGLEAQGDIVRVWDTGIYLLYSQVLFHDVTFTMGQVVSREGQGRRETLFRCIRSMPSDPDRAYNSCYSAGVFHLHQGDIITVKIPRANAKLSLSPHGTFLGFVKL
notes: Bought recombinant protein; also called mAPRIL
B4: tabalumab (antibody, V domains shown)
VH: QVQLQQWGAGLLKPSETLSLTCAVYGGSFSGYYWSWIRQPPGKGLEWIGEINHSGSTNYNPSLKSRVTISVDTSKNQFSLKLSSVTAADTAVYYCARGYYDILTGYYYYFDYWGQGTLVTVSS
VL: EIVLTQSPATLSLSPGERATLSCRASQSVSRYLAWYQQKPGQAPRLLIYDASNRATGIPARFSGSGSGTDSTLTISSLEPEDFAVYYCQQRSNWPRTFGQGTKVEIKR
B5: 5B7 IgG expressed in HEK293 cells (antibody, V domains shown)
VH: QVQLVQSGAEVKKPGASVKVSCKASGGTFSSYAISWVRQAPGQGLEWMGGIIPIFGTANYAQKFQGRVTITADKSTSTAYMELSSLRSEDTAVYYCARVDYDILTGYYMGYFDYWGQGTLVTVSS
VL: B4 VL with E1D, L4M, R31S, S71F, R96I, K103R, V104L
notes: also called 5B7 (293); 5B7-HEK293
B6: 5B7 IgG1 F243A/V264A double mutein expressed in Pichia pastoris (antibody, V domains shown)
VH: B5 VH
VL: B4 VL with E1D, L4M, R31S, S71F, R96I, K103R, V104L
notes: IgG1 F243A/V264A (EU) double mutein, alpha-2,6-sialylated, from glycoengineered Pichia pastoris; also called 5B7-DM; 5B7-DM Pichia

In assay [1] the target is T3, soluble human BLyS (human, UniProt Q9Y275 134-285). The assay is described as follows: cell-based or functional assay.
The target of assay [2] is T4, soluble mouse BLyS (mouse, UniProt Q9WU72 127-309).
T4 construct: europium-labelled in DELFIA; also called mBLyS; mouse BAFF (BLyS)
Kind of assay: DELFIA competition, Eu-mBLyS binding to coated BR3. As for the experimental part:
(§1) After 5× washing with 200 ul/well of DELFIA 1× wash solution (PE, Cat #4010-0010), plates were blocked with 3% BSA purified from trace heavy metal amounts (PE, Cat #CR84-100) for 3 hours with shaking at room temperature. Plates were washed again five times at 200 μl/well with DELFIA wash solution.
(§2) The final 3 wells across the plate served as controls (2 wells contained 2,000 pM mAbs for negative and background controls while the third contained no mAbs for positive control). […] After 18-24 hrs at 4° C., plates were read on PE EnVision plate reader with laser excitation, LANCE/DELFIA top mirror, and emission filter Eu-615 with a delay of 400 μs. Data were fit to four parameter (variable slope) inhibition dose response curve using GraphPad PRISM 5.0 software.

Assay [3] concerns the target T3, soluble human BLyS. Kind of assay: Biacore T100, binder captured by anti-human Fc, BLyS injected, 1:1 model. As for the experimental part: (§3) A Series S CM5 Chip (GE Healthcare) was amine coupled with an anti-human Fc capturing antibody (GE Healthcare Human Fc Kit) to >10,000 RUs. Sample antibodies were diluted in 1×HBS-EP+ running buffer to 0.15 ug/mL and injected for 45 seconds at 10 uL/min. […] Biacore Evaluation software was used to fit the data to a 1:1 Binding Model.

The target in assay [4] is T4, soluble mouse BLyS. Described as above. How it is done:
as §3

Assay [5] has as its target T1, human APRIL. Kind of assay: Biacore, binder captured, APRIL injected at 50 nM. How it is done: (§4) Recombinant protein NG (Thermo Scientific, Cat #21186) was diluted to 100 μg/ml in 10 mM Sodium Acetate pH 4.0 and then immobilized on the surface of a pre-activated Series S CM4 Biacore chip (GE, Cat #BR-1005-34) using amine coupling. […] Binding response was measured as the difference in total RU increase during 300 second APRIL injection of each individual flow cell and the reference flow cell (e.g., Flow cell 2-1).
In general terms: Surface plasmon resonance follows binding to a sensor surface in real time, without labels.

Assay [6] concerns the target B3. Kind of assay: Biacore, binder captured, APRIL injected at 50 nM. How it is done:
as §4

Assay [7] has as its target T2, human TACI (R&D Systems receptor …). The assay is described as follows: Biacore, binder captured, APRIL injected at 50 nM. How it is done:
as §4

In assay [8] the target is T3, soluble human BLyS. Kind of assay: DELFIA competition, Eu-hBLyS binding to coated BR3. As for the experimental part:
as §1, §2

Assay [9] concerns the target T3, soluble human BLyS. The assay is described as follows: Biacore.
For assay [10], the target named is T4, soluble mouse BLyS. The assay is described as follows: Biacore.
Assay [11] deals with T3, soluble human BLyS. The assay is described as follows: ELISA, soluble hBLyS. A general note: In an ELISA, binding on a coated surface is turned into a signal by an enzyme label.
Assay [12] deals with T4, soluble mouse BLyS. Kind of assay: ELISA, soluble mBLyS.
Another assay deals with T5, soluble cynomolgus BLyS (cynomolgus, UniProt A0A2K5V2X4 134-285).
T5 construct: Soluble form; also called cyBLyS; Soluble cyBLyS
The assay is described as follows: ELISA, soluble cyBLyS.

Assay [13] addresses T4, soluble mouse BLyS. The assay is described as follows: cell-based or functional assay.
Assay [14] deals with T1, human APRIL. Kind of assay: Biacore, antibody captured, APRIL injected. How it is done:
as §4

Assay [15] deals with B3. Kind of assay: Biacore, antibody captured, APRIL injected. How it is done:
as §4

For assay [16], the target named is T3, soluble human BLyS. Kind of assay: DELFIA competition, Eu-hBLyS binding to coated BCMA. How it is done: as §1, §2
Assay [17] has as its target T3, soluble human BLyS. Kind of assay: DELFIA competition, Eu-hBLyS binding to coated TACI. How it is done: as §1, §2
Assay [18] has as its target T4, soluble mouse BLyS. The assay is described as follows: DELFIA competition, Eu-mBLyS binding to coated BCMA. As for the experimental part: as §1, §2
Assay [19] deals with T4, soluble mouse BLyS. Kind of assay: DELFIA competition, Eu-mBLyS binding to coated TACI. How it is done: as §1, §2
Assay [20] concerns the target T3, soluble human BLyS. Kind of assay: blocking of biotinylated soluble hBLyS binding to immobilized mBR3.
Assay [21] deals with T3, soluble human BLyS. Kind of assay: Biacore, antibody captured on chip, BLyS injected, 1:1 model, 25 C. How it is done: (§5) Recombinant protein NG (Thermo Scientific, Cat #21186) was diluted to 100 μg/ml in 10 mM sodium acetate pH 4.0 and then immobilized on the surface of a pre-activated Series S CM5 Biacore chip (GE, Cat #BR-1005-34) using amine coupling. […] After the dissociation period, the chip was regenerated back to baseline by injecting 10 mM glycine pH 1.5 for 120 seconds over the four flow cells. […] The entire data set was fit to a 1:1 interaction model to give kₒₙ, koff, and Kd values. The assay was run at 25° C. in 1× biacore running buffer HBS-EP+ (GE, Cat #BR-1006-69).

The target of assay [22] is T4, soluble mouse BLyS. The description is as above. How it is done: as §5

With B1, the “IC50 hBLyS stimulated, mouse splenic B-cell proliferation” value (shortened to “IC50 hBLyS stimulated”) with soluble human BLyS [1] is 18 ng/mL. Moreover, in the assay with soluble mouse BLyS [2], the IC50 is > 2000 pM. In the assay with soluble human BLyS [3], this molecule yielded a Kd of 167 pM, a koff of 8.55e-05 s⁻¹ and a kon of 506000 M⁻¹ s⁻¹. Moreover, in the assay with soluble mouse BLyS [4], the Kd is 63.5 pM, the koff is 0.000125 s⁻¹ and the kon turned out to be 1.98e+06 M⁻¹ s⁻¹.

As to B2, the binding result with human APRIL [5] was “binds”. Further, in the assay with mouse APRIL [6], the binding result is reported as “binds”. In the assay with soluble human BLyS [3], the Kd was determined as 602 pM, the koff is 0.000239 s⁻¹ and the kon came to 397000 M⁻¹ s⁻¹. In the assay with soluble mouse BLyS [4], this molecule had a Kd of 177 pM, a koff of 0.000121 s⁻¹ and a kon of 682000 M⁻¹ s⁻¹.

As for B3, the binding result in assay [7] is reported as “binds”.

For B4, the “IC50 hBLyS stimulated” value with soluble human BLyS [1] is 4 ng/mL. For the same molecule, the results for the IC50 with soluble human BLyS [8] and with soluble mouse BLyS [2] were 89.9 pM and > 2000 pM, respectively.

For B5, the Kd amounted to 400 pM with soluble human BLyS [9], 14.5 pM with soluble mouse BLyS [10], 224 pM with soluble human BLyS [21] and 62 pM with soluble mouse BLyS [22]. In addition, the IC50 worked out at 100 pM in the assay with soluble human BLyS [11]; 160 pM with soluble mouse BLyS [12]; 80 pM with soluble cynomolgus BLyS; 52.6 pM in the assay with soluble human BLyS [8]; 107 pM in the assay with soluble mouse BLyS [2]; 1.8 pM with soluble human BLyS [16]. Further, the IC50 is < 0.3 pM with soluble human BLyS [17], 1.3 pM with soluble mouse BLyS [18], < 0.3 pM with soluble mouse BLyS [19] and 430 pM in the assay with soluble human BLyS [20]. For the same molecule, in the assay with soluble human BLyS [1], the “IC50 hBLyS stimulated” value worked out at 4 ng/mL. Besides, the “IC50 mBLyS stimulated, mouse splenic B-cell proliferation” value in the assay with soluble mouse BLyS [13] stood at 3 ng/mL. Moreover, the binding result in the assay with human APRIL [14] and with mouse APRIL [15] was “no binding (tested: 50 nM)” throughout. Moreover, the koff with soluble human BLyS [21] and with soluble mouse BLyS [22] was 4.2e-05 s⁻¹ throughout. Moreover, the kon came to 190000 M⁻¹ s⁻¹ in the assay with soluble human BLyS [21] and 670000 M⁻¹ s⁻¹ with soluble mouse BLyS [22].

In the case of B6, the “IC50 hBLyS stimulated” value with soluble human BLyS [1] was ≤ 1 ng/mL. Besides, the “IC50 mBLyS stimulated, mouse splenic B-cell proliferation” value with soluble mouse BLyS [13] was ≤ 1 ng/mL. Moreover, the binding result with human APRIL [14] and with mouse APRIL [15] was “no binding (tested: 50 nM)” throughout. For the same molecule, the IC50 with soluble human BLyS [8] is 37.7 pM; in the assay with soluble mouse BLyS [2] it was 94 pM; with soluble human BLyS [16] it was 1.6 pM; with soluble human BLyS [17] it was 0.51 pM; with soluble mouse BLyS [18] it was < 0.3 pM; in the assay with soluble mouse BLyS [19], < 0.3 pM. In addition, the Kd was 179 pM with soluble human BLyS [21], 65 pM with soluble mouse BLyS [22], 68 pM in the assay with soluble human BLyS [3] and 37 pM in the assay with soluble mouse BLyS [4]. For the same molecule, the koff came to 3.5e-05 s⁻¹ in the assay with soluble human BLyS [21], 4e-05 s⁻¹ with soluble mouse BLyS [22], 4.6e-05 s⁻¹ with soluble human BLyS [3] and 0.000102 s⁻¹ with soluble mouse BLyS [4]. Besides, the kon with soluble human BLyS [21] came out at 190000 M⁻¹ s⁻¹; with soluble mouse BLyS [22] it was 620000 M⁻¹ s⁻¹; in the assay with soluble human BLyS [3], 678000 M⁻¹ s⁻¹; in the assay with soluble mouse BLyS [4], 2.73e+06 M⁻¹ s⁻¹.

Usually IC50 stands for the midpoint of a concentration-inhibition curve. A low value points to greater potency. Broadly, the Kd is the free concentration of one partner at which half of the binding sites on the other are occupied at equilibrium, for simple one-to-one binding. High values mean weaker binding, low ones tighter binding. What is called koff is a measure of how fast the partners let go of each other. Lower therefore signals slow dissociation. Broadly, the kon is a measure of how fast the partners come together. A lower kon goes with slower complex formation.
